Source: PMC4067742, “Direct Observations of Amyloid β Self-Assembly in Live Cells Provide Insights into Differences in the Kinetics of Aβ(1–40) and Aβ(1–42) Aggregation” (Chemistry & Biology, 2014)

Assay: Fluorescence lifetime imaging (FLIM) of amyloid fibril formation in vitro
Type: physicochemical
Conditions: for fluorescence lifetime of larger aggregates deposited on the coverslip: FLIM, 'often in the range of'; for mean fluorescence lifetime, monomeric peptide: beginning of time course / before trypsin
Experimental: We first examined whether a Hilyte Fluor 488 (HF488) dye attached to the N termini of Aβ(1–40) and Aβ(1–42) could act as a reporter of amyloid formation by monitoring how the fluorescence intensity of the dye changes as fibril formation occurs in vitro for each of the two Aβ isoforms. The appearance of fibrillar species was identified by means of dot blot experiments using the conformation-specific antibody LOC ([Kayed et al., 2007]), and the HF488 fluorescence intensity was measured in parallel (Figure 1A; Figure S1 available online). […] This small difference, however, could result from the fact that LOC recognizes fibrillar oligomers as well as amyloid fibrils, whereas the fluorescence quenching is likely to be associated predominately with amyloid fibrils. We also confirmed the formation of β sheet structure by measurement of circular dichroism spectra at the beginning and end of the time course of the experiment (Figure 1B). Next, we used FLIM to analyze these samples collected at the beginning and end of the time course of the experiment. The fluorescence lifetimes in each pixel of these images were obtained by fitting monoexponential decay functions to the observed time-resolved fluorescence decays, and the data and images are shown in Figures 1C and 1D.
All in vitro experiments were performed at a peptide concentration of 5 μM in 50 mM sodium phosphate buffer at pH 7.4. Aggregation kinetics were monitored by steady-state fluorescence in a FLUOstar Optima microplate reader (BMG Labtech) and sealed black Costar half-area, 96-well plates (Corning Life Sciences). Data were recorded at 5-min intervals using a 480-nm bandpass filter for excitation and a 520-nm bandpass filter for emission. Orbital shaking (300 rpm, 10 s) was carried out prior to each recording to ensure that each sample was homogenous. Sample aliquots for dot blot analysis were taken at the indicated time points and immediately flash-frozen in liquid nitrogen. These aliquots were thawed by dilution into phosphate buffer to a total volume of 25 μl and immediately blotted onto a nitrocellulose membrane using a Bio-Rad dot blot apparatus. The membrane was blocked with 5% (w/v) dry milk and 0.1% Triton X-100 in PBS and stained with LOC as the primary antibody and an Alexa Fluor 647-labeled anti-rabbit antibody as the secondary antibody (Life Technologies). The blots were imaged on a Typhoon 9400 scanner (GE Healthcare) using the 633-nm laser line for excitation. Densitometric analysis of the blots was carried out using ImageJ. ([Schneider et al., 2012]). Aβ samples for in vitro fluorescence lifetime imaging were placed in a glass-bottomed tissue culture dish (MatTek) and sealed with a coverslip and nail varnish to avoid evaporation.
All FLIM experiments were carried out using HF488-labeled Aβ peptides, and images were recorded by time-correlated single photon counting (TCSPC) using a confocal microscopy platform built on an Olympus Fluoview FV300 confocal scan unit. A pulsed supercontinuum source (SC 450, Fianium) was used for excitation, emitting a train of sub-10-picosecond pulses at 40 MHz repetition rate. The output beam was collimated and passed through a hot mirror assembly to remove infrared components at wavelengths greater than 700 nm. The visible portion of the spectrum was passed through an acousto-optic tunable filter (AOTFnC-VIS, AA Opto-Electronic) whose radio frequency modulator was driven by software developed using LabVIEW (National Instruments). The excitation wavelength was set to 480 nm. The excitation beam was reflected onto the sample with a 20/80 broad bandwidth coated beam splitter so that 20% of the excitation light passed on to the sample and 80% of the fluorescence signal was reflected toward the confocal pinhole. The fluorescence light was passed through a 515-nm Semrock long-pass filter (Laser 2000) and passed onto a fast photomultiplier tube (PMC-100, Becker & Hickl). Lifetimes were recorded using TCSPC circuitry (SPC-830, Becker & Hickl). […]

[1] = 5 μM peptide in 50 mM sodium phosphate buffer pH 7.4
[2] = 5 μM peptide in 50 mM sodium phosphate buffer pH 7.4, FLIM (TCSPC), monoexponential fit, mean ± SD

Substance: ^HF488Aβ(1–40): Synthetic 40-residue amyloid β peptide labeled at the N terminus with Hilyte Fluor 488, purchased from Anaspec
- lag phase of fibril formation in vitro (decrease in fluorescence lifetime) (5 μM peptide in 50 mM sodium phosphate buffer pH 7.4, droplet on FLIM microscope stage, sigmoidal decrease (Figure S2A)): approximately 2.5 hr
- fluorescence lifetime of larger aggregates deposited on the coverslip [1]: 2.5–3.0 ns
- mean fluorescence lifetime, monomeric peptide [2]: 3.7 ± 0.1 ns

Substance: ^HF488Aβ(1–42): Synthetic 42-residue amyloid β peptide labeled at the N terminus with Hilyte Fluor 488, purchased from Anaspec
- fluorescence lifetime of larger aggregates deposited on the coverslip [1]: 2.5–3.0 ns
- mean fluorescence lifetime, monomeric peptide [2]: 3.7 ± 0.05 ns
- mean fluorescence lifetime, solutions containing fibrillar peptide (aggregation read-out, 5 μM peptide in 50 mM sodium phosphate buffer pH 7.4, end of time course, FLIM (TCSPC), monoexponential fit, mean ± SD): 3.3 ± 0.1 ns
